US20210317231A1 (BYONDIS B V, published 2021)

How the values were obtained:
[1] = target: T1, human 5T4 oncofoetal antigen (human, UniProt Q13641 32-420); assay: flow cytometry, PA-1 cells
T1 construct: whole, on cells; also called hu 5T4; human 5T4 antigen
T1 sequence (looked up): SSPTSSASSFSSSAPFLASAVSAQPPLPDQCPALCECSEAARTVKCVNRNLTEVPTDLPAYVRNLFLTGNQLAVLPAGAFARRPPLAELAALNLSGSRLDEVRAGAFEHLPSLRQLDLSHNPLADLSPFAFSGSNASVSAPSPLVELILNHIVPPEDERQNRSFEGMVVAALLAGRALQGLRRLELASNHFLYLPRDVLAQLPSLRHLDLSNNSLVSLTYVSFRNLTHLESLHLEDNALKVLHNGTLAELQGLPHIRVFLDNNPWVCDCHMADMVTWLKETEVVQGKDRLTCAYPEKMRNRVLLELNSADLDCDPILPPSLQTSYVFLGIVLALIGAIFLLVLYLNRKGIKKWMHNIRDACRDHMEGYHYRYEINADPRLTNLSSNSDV
Method: (§1) 17 antibodies were selected and affinity to 5T4 antigen was measured using MDA-MB-468 cells, PA-1 cells and Chinese Hamster Ovary (CHO) mammalian cells expressing human or cyno 5T4 antigen (Table 2). In the current application the utilized CHO cells are referred to as CHOZN as these CHO cells expressing human or cyno 5T4 antigen were obtained using the CHOZN® Platform of Sigma-Aldrich. CHOZN cells (SAFC) were transiently transfected, using an Amaxa nucleofector device (Lonza) according to the manufacturer's instructions. Standard, commercially available mammalian expression vectors (SAFC, Life Technologies) were used, which contained the full length human and cyno 5T4 antigen coding sequence (according to accession number NP 006661.1 and Q4R8Y9 respectively), preceded by a human CMV promoter. Transiently transfected CHOZN cells were cultured according the manufacturer's instructions, before being used in antibody binding studies. The 17 selected antibodies are characterised by the amino acid sequences according to the following table (Table 1).
(§2) MDA-MB-468 cells, PA-1 cells or CHOZN cells expressing human or cyno 5T4 antigen (100,000 cells/well in a 96-well plate) were washed three times with ice-cold FACS buffer (1×PBS (Lonza) containing 0.2% v/w BSA (Sigma-Aldrich, St. Louis, Mo.)) and 0.02% v/w NaN3 (Sigma-Aldrich), followed by the addition of a concentration range of each primary mAb (50 μl/well) diluted in ice-cold FACS buffer. After an incubation of 30 minutes at 4° C., cells were washed three times with ice-cold FACS buffer and 50 μl/well secondary mAb (AffiniPure F(ab′)2 fragment Goat-anti-human IgG-APC, 1:6,000 dilution, Jackson Immuno Research) was added. After 30 minutes at 4° C., cells were washed twice and resuspended in 150 μl FACS buffer. Fluorescence intensities were determined by flow cytometry (BD FACSVerse, Fanklin Lakes, N.J.) and indicated as the median fluorescence intensity (MFI). Curves were fitted by nonlinear regression using the sigmoidal dose-response equation with variable slope (four parameters) in GraphPad Prism (version 5.01/6.01 for Windows, GraphPad, San Diego, Calif.). EC₅₀ values were calculated as the concentration in μg/ml that gives a response half way between bottom and top of the curve, when using a 4 parameter logistic fit.

[2] = target: T1, human 5T4 oncofoetal antigen; assay: flow cytometry, MDA-MB-468 cells
Method: as §1, §2

[3] = target: T2, cynomolgus monkey 5T4 antigen (cynomolgus monkey, UniProt Q4R8Y9 35-420); assay: flow cytometry, CHOZN cells expressing cyno 5T4
T2 construct: whole, on cells; also called cyno 5T4
T2 sequence (looked up): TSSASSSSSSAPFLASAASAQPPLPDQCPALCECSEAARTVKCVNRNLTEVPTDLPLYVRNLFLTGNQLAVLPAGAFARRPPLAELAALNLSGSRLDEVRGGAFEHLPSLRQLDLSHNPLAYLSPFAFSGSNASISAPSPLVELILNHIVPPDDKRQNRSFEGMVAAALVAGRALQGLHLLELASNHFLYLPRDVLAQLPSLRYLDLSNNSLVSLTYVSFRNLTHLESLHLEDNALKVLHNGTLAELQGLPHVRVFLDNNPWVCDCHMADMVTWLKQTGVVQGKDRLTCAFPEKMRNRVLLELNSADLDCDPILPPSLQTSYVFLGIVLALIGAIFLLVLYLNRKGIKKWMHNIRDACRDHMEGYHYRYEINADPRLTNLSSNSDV
Method: as §2

[4] = target: T1, human 5T4 oncofoetal antigen; assay: flow cytometry, CHOZN cells expressing hu 5T4
Method: as §1, §2

[5] = target: T2, cynomolgus monkey 5T4 antigen; assay: flow cytometry, CHOZN cells expressing cyno 5T4; remark: listed apart in the source
Method: as §1, §2

| Binder | EC50 [1] [µg/mL] | EC50 [2] [µg/mL] | fold improvement of binding compared to H8 on cyno 5T4 [3] [fold] | EC50 [4] [µg/mL] | EC50 [5] [µg/mL] |
| --- | --- | --- | --- | --- | --- |
| chimeric anti-5T4 monoclonal antibody 841 (antibody, human IgG1, V domains shown) VH: QSLEESGGRLVTPGTPLTLTCKASGFSLSTYWMSWVRQAPGKGLEWIGIMLSYGNTVYANWAKGRFTISKTSSTTVDLKITSPTTEDTATYFCARGLYGGYPNYGVYDLWGQGTLVTVSS VL: DVVMTQTPASVEAAVGGTVTIKCQASQSISSYLSWYQQKPGQPPKLLIYAASNLASGVSSRFKGSRSGTEYTLTISDLESADAATYYCQCTDYGSNYVGAFGGGTEVVVK | 0.02 | 0.1 | 32 | 0.24 | 0.14 |
| chimeric anti-5T4 monoclonal antibody 899 (antibody, human IgG1, V domains shown) VH: QSVEESGGRLVTPGTPLTLTCTVSGFSLSSYTMSWVRQAPGKGLEYIGIISSSDGTWYANWVKGRFTISKTSTTVDLKMTSLTTEDTATYFCARDGTGNKYYTWDRLDLWGQGTLVTVSS VL: NIVMTQTPSPVSGAVGGTVTINCQASQSIYNELSWYQQKPGQPPKLLIYYASTLASGVSSRFKGSGSGTQFTLTISGVESVDAATYYCQQGYSSSNVDNVFGGGTEVVVK | 0.05 | 0.09 | 32 | 0.17 | 0.18 |
| chimeric anti-5T4 monoclonal antibody 848 (antibody, human IgG1, V domains shown) VH: QSVEESGGRLVTPGTPLTLTCTVSGFSLSSYTMSWVRQAPGKGLEWIGIISSIGSIWYASWAKGRFTISKTSTTVDLKMTSLTTEDTATYFCARDGTGSKYYTWDRLDLWGQGTLVTVSS VL: NIVMTQTPSPVSGAVGGTVTINCQASQSIYNELSWYQQKPGQPPKLLIYYTSTLASGVSSRFKGSGSGTQFTLTISGVESVDAATYYCQQGYSSSDVDNVFGGGTEVVVK | 0.05 | 0.09 | 32 | 0.17 | 0.12 |
| chimeric anti-5T4 monoclonal antibody 789 (antibody, human IgG1, V domains shown, also called clone 789) VH: QSVEESGGRLVTPGTPLTLTCTASGFSLSSYWMSWVRQAPGKGLEWIGIIAGRGSTYYASWAKGRCTISKTSTTVDLKITSPTTEDTAAYFCARVSSIYYTFNLWGQGTLVTVSS VL: AQVLTQTPSSVSAAVGGTVTINCQSSQSVYSNNELSWYQQKPGQPPKLLIYYASTLASGVPSRFKGSGSGTQFTLTISGVQSDDAATYYCQGSYYSGSGWYYAFGGGTEVVVK | 0.03 | 0.1 | 32 | 0.27 | 0.15 |
| chimeric anti-5T4 monoclonal antibody 835 (antibody, human IgG1, V domains shown) VH: QSVEESGGRLVTPGTPLTLTCTVSGIDLSSGAMGWVRQAPGKGLEWIGLISSSPITYYANWARGRFTISKTSTTVDLKITSPTTADTATYFCARGYDDYGEIWFNIWGPGTLVTVSL VL: AIEMTQSPPSLSASVGETVRIRCLAGEDIYSSISWYQQKPGKPPTLLIYGASNLESGVPPRFSGSGSGTDYTLTIGGVQAEDAATYYCLGGWSYSSSLTFGAGTKVEIK | 0.08 | 0.09 | 32 | 0.17 | 0.18 |
| chimeric anti-5T4 monoclonal antibody 834 (antibody, human IgG1, V domains shown) VH: QSVEESGGRLVTPGTPLTLTCTVSGFSLSTYSMSWVRQAPGKGLEWIGVISRGGSAYYASWAKGRFTISKTSTTVDLKVTSPTTEDTATYFCARGAISSGYYVYDGMDLWGPGTLVTVSS VL: DIVMTQTPGSVEAAVGGTVTIKCQASESISSYLAWYQQKPGQPPKFLIYSASTLASGVPSRFKGSGSGTEFTLTISDLESADAATYYCQCTDYGSDYMGAFGGGTGVVVK | 0.05 | 0.13 | 32 | 0.19 | 0.13 |
| chimeric anti-5T4 monoclonal antibody 829 (antibody, human IgG1, V domains shown) VH: QSLEESGGRLVTPGTPLTLTCTASGFSLSSYDMSWVRQAPGKGLEYIGWINSDDGAYYANWAKGRFTISRTSTTVDLKITSPTTEDTATYFCARDAGSTYLYGLDPWGPGTLVTVSS VL: DVVMTQTPSSVSAGVGGTVTIKCQASQSISSYLAWYQQKPGQRPKLLIYAASTLASGVSSRFKGSGSGTEYTLTINDLESADAATYYCQCTYYGGTYNTFGGGTEVVVK | 0.07 | 0.17 | 32 | 0.24 | 0.22 |
| chimeric anti-5T4 monoclonal antibody 868 (antibody, human IgG1, V domains shown) VH: QSVEESGGRLVTPGTPLTLTCTASGFSLSDYTMGWVRQAPGKGLEWIGIINGYGSTYYANWAKGRFAISKTSTTVDLKITSPATEDTATYFCARGDTGRTYDMHFNLWGQGTLVTVSS VL: AYDMTQTPASVSAAVGGTVTIKCQASESIRSWLAWYQQKPGQPPKLLIYSASTLASGVSSRFKGSGSGTQFTLTIGDLESADAATYYCQQGYTSSNLDNAFGGGTEVLVK | 0.04 | 0.14 | 32 | 0.22 | 0.17 |
| chimeric anti-5T4 monoclonal antibody 845 (antibody, human IgG1, V domains shown) VH: QSLEESGGRLVTPGTPLTLTCTVSGIDLSSYTMNWVRQAPGKGLEWIGVITSHNTYYASWAKGRFTISKTSTTVDLKITSPTTEDTATYFCARSNYGSTIYYMGGMDPWGPGTLVTVSS VL: DVVMTQTPASVSAAVGGTVTINCQASQSIGSYLAWYQHQPGQPPKLLIYSASTLESGVSSRFEGSRSGTEYTLTISDLDSADAATYYCQCTDYGASYLGAFGGGTEVVVK | 0.05 | 0.11 | 32 | 0.2 | 0.17 |
| chimeric anti-5T4 monoclonal antibody 825 (antibody, human IgG1, V domains shown, also called clone 825) VH: QSVEESGGRLVTPGTPLTLTCTVSGIDLSSYGMGWVRQAPGKGLEYIGIISRNSVTYYATWAKGRFTISKTSTTVDLKMTSPTTEDTATYFCARRATYSGALGYFDIWGPGTLVTVSF VL: GYDMTQTPASVSAAVGGTVTINCQASENIYSTLAWYQQKPGQPPKVLIYDAFDLASGVPSRFKGSGSGTEYTLTISGVQSDDAATYYCQQGYSGTNVDNAFGGGTEVVVK | 0.03 | 0.07 | 32 | 0.13 | 0.14 |
| chimeric anti-5T4 monoclonal antibody 843 (antibody, human IgG1, V domains shown) VH: QSLEESGGRLVTPGTPLTLTCTASGFSLNNAYMNWVRQAPGKGLEWIGIINTYGSTYFATWAKGRFTFSKTSTTVDLKITSPTTEDTATYFCARAYAPFSTYSHYYGMDLWGPGTLVTVSS VL: DVVMTQTPSSVSAAVGGTVTIKCQASESIGSWLSWYQQKPGQPPKLLIYEASKLTSGVPSRFKGSGSGTEYTLTISDLESADAATYYCQYTDYGSNYLGTFGGGTEVVVK | 0.04 | 0.08 | 32 | 0.21 | 0.21 |
| chimeric anti-5T4 monoclonal antibody 833 (antibody, IgG1, V domains shown, also called clone 833) VH: QSLEESGGGLVTPGGSLTLTCTGSGIDLSHYVVGWVRQAPGKGLEWIGIIYGSGRTYYANWAKGRFTISKTSTTVDLRIARPTAEDTATYFCARDASVSVYYWGYFDLWGQGTLVTVSS VL: AYDMTQTPVSVEVAVGGTVTIKCQASQSIGSELAWYQQKPGQPPKLLIYRASTLESGVPSRFSGSGSGTEFTLTISGVESADAATYYCQQGYTYSEIDNAFGGGTEVVVK | 0.02 | 0.04 | 32 | 0.14 | 0.08 |
